Measured values reported in patent US20060084596A1 (UNIVERSITY OF SOUTH FLORIDA, published 2006).
Where “and” joins values, the source holds several entries; their conditions need not be identical. Identical values can stand only once. Like-named read-outs stand apart in the source and are kept apart here. Positions of bridges follow the written chain, without caps; N, C: chain ends.

Experiments:
[1] = target: T1, platelet derived growth factor PDGF-BB (UniProt P01127 82-190); test: inhibition of [125I]-PDGF-BB binding to NIH 3T3 cells (PDGFR), 4 °C
[2] = target: T2, vascular endothelial growth factor (VEGF) (UniProt P15692-4 27-191, limits assumed); test: inhibition of [125I]-VEGF binding to NIH 3T3 cells overexpressing Flk-1, GFB-111 10 µM
[3] = target: T1, platelet derived growth factor PDGF-BB; test: cell-based or functional assay
[4] = target: insulin-like growth factor-1 (IGF-1) (UniProt P05019); test: cell-based or functional assay
[5] = target: T2, vascular endothelial growth factor …; test: cell-based or functional assay
[6] = target: acidic fibroblast growth factor (aFGF) (UniProt P05230 16-155, limits assumed); test: cell-based or functional assay
[7] = target: T2, vascular endothelial growth factor …; test: cell-based or functional assay; remark: listed apart in the source
[8] = target: T2, vascular endothelial growth factor …; test: cell-based or functional assay; remark: listed apart in the source
[9] = target: insulin-like growth factor-1 (IGF-1) (UniProt P05019 49-118); test: cell-based or functional assay
[10] = target: T1, platelet derived growth factor PDGF-BB; test: cell-based or functional assay; remark: listed apart in the source
[11] = target: T1, platelet derived growth factor PDGF-BB; test: cell-based or functional assay; remark: listed apart in the source

Sequence of insulin-like growth factor-1 (IGF-1) (UniProt P05019) (P05019 49-118 limits assumed): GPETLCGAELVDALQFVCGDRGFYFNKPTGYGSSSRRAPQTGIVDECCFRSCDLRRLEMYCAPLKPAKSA
Sequence of insulin-like growth factor-1 (IGF-1) (UniProt P05019 49-118) (P05019 49-118 limits assumed): as above
T2 sequence (P15692 other isoform, or with tags, fused parts or gaps limits assumed): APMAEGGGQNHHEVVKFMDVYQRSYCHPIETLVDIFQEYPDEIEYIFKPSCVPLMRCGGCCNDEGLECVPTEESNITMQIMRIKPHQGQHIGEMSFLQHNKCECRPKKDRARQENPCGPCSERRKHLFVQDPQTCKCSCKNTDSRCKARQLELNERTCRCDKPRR
Sequence of acidic fibroblast growth factor (aFGF) (P05230 16-155 limits assumed): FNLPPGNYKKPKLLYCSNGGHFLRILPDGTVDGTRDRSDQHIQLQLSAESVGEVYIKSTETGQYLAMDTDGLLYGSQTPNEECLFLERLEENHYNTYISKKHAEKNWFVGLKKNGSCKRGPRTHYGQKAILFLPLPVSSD
T1 sequence (P01127 82-190 limits assumed): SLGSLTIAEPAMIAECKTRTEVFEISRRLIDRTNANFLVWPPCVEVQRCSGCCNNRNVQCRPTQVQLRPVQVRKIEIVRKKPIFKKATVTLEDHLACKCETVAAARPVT

Binder	IC50, PDGFR-Y-P [3]	IC50, p42/Erk2 [3]	(IC50) Inhibition, p44 [6]	IC50, Flk-1-Y-P [7]	IC50, p42 [7]	IC50, p44 [7]	(IC50) Inhibition, p42 [6]	% Inhibition at 100 µM, IGF1R-Y-P [9]	% Inhibition at 100 µM, p42 [9]	% Inhibition at 100 µM, p44 [9]	IC50, PDGFR-Y-P [10]	IC50, p42/Erk2 [10]	further results
GDGY (designed binder, linker N-C via 3‑aminomethyl‑5‑aminobenzamide; also: four loops on But-Calix calix[4]arene scaffold) [GFB-111]	0.25 µM	2.6 µM	68 µM per head; likely % and 51.8 µM per head; likely %	–	–	–	–	–	–	–	–	–	IC50 [1]: 0.25 µM; inhibition of [125I]-VEGF binding at 10 µM GFB-111 [2]: 50%; IC50, PDGF-BB stimulated DNA synthesis ([3H]-thymidine incorporation) [3]: 6.5 µM; IC50, PDGF-dependent activation of Erk1 [3]: 0.8 µM; IC50, PDGF-dependent activation of Erk2 [3]: 1.2 µM; PDGF-BB stimulation of receptor tyrosine phosphorylation, complete block [3]: 3 µM; % Inhibition at 100 µM, IGF1R-Y-P [4]: -12.4%; % Inhibition at 100 µM, p42 [4]: -18.4%; % Inhibition at 100 µM, p44 [4]: 10.7%; IC50, Flk-1-Y-P [5]: 5 µM; IC50, VEGF-stimulated Flk-1 tyrosine phosphorylation and MAPK activation [5]: 10 µM; IC50, p42 [5]: 10 µM; IC50, p44 [5]: 10 µM
GKGK (designed binder, linker N-C via 3‑aminomethyl‑5‑aminobenzamide; also: four loops on But-Calix scaffold) [GFB-116]	40 µM	28 µM	97.5 µM per head; likely % and 97.2 µM per head; likely % and 116 µM per head; likely % and 99.9 µM per head; likely %	0.3 µM	5 µM	5 µM	99.2 µM per head; likely % and 99.6 µM per head; likely % and 102 µM per head; likely % and 99.7 µM per head; likely %	–	–	–	–	–	IC50, VEGF-stimulated flk-1 tyrosine phosphorylation [8]: 3000 µM; (IC50) Inhibition, p42 (mean) [6]: 100 µM per head; likely %; (IC50) Inhibition, p44 (mean) [6]: 103 µM per head; likely %
GDSD (designed binder, linker N-C via 3‑aminomethyl‑5‑aminobenzamide; also: four loops on But-Calix calix[4]arene scaffold) [GFB-113]	–	–	64.3 µM per head; likely %	< 10 µM	10 µM	10 µM	53.6 µM per head; likely %	-18.9%	-31.4%	18.7%	2.8 µM	30 µM	–
GKGF (designed binder, linker N-C via 3‑aminomethyl‑5‑aminobenzamide; also: four loops on But-Calix scaffold) [GFB-115]	–	–	-23.9 µM per head; likely %	–	5 µM and 10 µM	5 µM and 10 µM	-21 µM per head; likely %	-38.3%	-12.4%	51.9%	> 50 µM	> 50 µM	IC50, PDGF-BB-stimulated PDGF receptor tyrosine autophosphorylation [11]: 50 µM
